In patent US6927286B1, “Bleomycin gene cluster components and their uses” (The Regents of the University of California, priority 1999, dated 2005):

Experiments:
[1] = test system: T1, holo-BlmI (4'-phosphopantetheinylated BlmI, produced from pBS2)
T1 sequence: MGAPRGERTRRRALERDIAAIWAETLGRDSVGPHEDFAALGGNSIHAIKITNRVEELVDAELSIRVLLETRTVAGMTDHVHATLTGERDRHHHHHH

[2] = test system: T2, apo-BlmI (type II peptidyl carrier protein BlmI, apo-form, produced from pBS2)
T2 sequence: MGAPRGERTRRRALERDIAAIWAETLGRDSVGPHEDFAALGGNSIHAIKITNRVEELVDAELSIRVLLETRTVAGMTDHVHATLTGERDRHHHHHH

[3] = target: apo-BlmI (type II peptidyl carrier protein BlmI, apo-form, produced from pBS2) (Streptomyces verticillus ATCC15003); assay: cell-based or functional assay
apo-BlmI = assay: In vitro 4′-phosphopantetheinylation of BlmI by Sfp with [3H-pantetheine]-CoA; type: biochemical, Streptomyces verticillus; conditions: autoradiographic analysis
Description: To investigate 4′-phosphopantetheinylation of BlmI in vitro, we chose the Sfp protein as the preferred PPTase, which had been isolated before from the surfactin producer Bacillus subtilis (Nakano et al. (1992) Mol. Gen. Genet. 232: 313-321).
Expression of sfp in E. coli MV1190(pUC8-Sfp), purification of the Sfp PPTase to homogeneity, and 4′-phosphopantetheinylation of apo-BlmI by Sfp in vitro were carried out essentially according to literature procedures (Quadri et al. (1998) Biochemistry 37: 1585-1595; Nakano et al. (1992) Mol. Gen. Genet. 232: 313-321). A typical 100 μl assay solution contained 26 μM apo-BlmI, 2.9 μM Sfp, 25 μM [^3H-pantetheine]-CoA (0.9 μCi, 40 Ci/mM), 10 mM MgCl2, and 5 mM DTT, in 75 mM MES/NaOAc buffer, pH 6.0. After 30 min incubation at 37° C., the assays were stopped by addition of 5 μl of bovine serum albumin (0.2 mg/ml) and 0.9 ml of cold 10% (v/v) trichloroacetic acid (TCA). The precipitated proteins were collected by centrifugation at 14,000 rpm, 20 min, 4° C. (Eppendorf 5415C centrifuge), washed with 10% TCA three times, and resolved by SDS-PAGE on 15% gel. The ^3H-activity incorporated into holo-BlmI was similarly determined by autoradiography as described for in vivo labeling of holo-Blm with [3-^3H]-β-alanine.

[4] = target: T3, apo-BlmI (type II peptidyl carrier protein BlmI, apo-form, produced from pBS2)
T3 chain: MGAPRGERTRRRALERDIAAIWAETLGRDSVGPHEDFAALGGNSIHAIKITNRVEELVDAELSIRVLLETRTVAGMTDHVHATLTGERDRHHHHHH

Gsp PPTase = target: T4, Gsp PPTase (Aneurinibacillus migulanus, UniProt P40683); assay: In vivo 4′-phosphopantetheinylation of BlmI co-expressed with gsp in E. coli OG7001; type: cell-based; conditions: E. coli OG7001(pBS2/pDPT-Gsp), HPLC analysis
T4 construct: expressed in transfected cells; host or cells: E. coli OG7001 (pBS2/pDPT-Gsp)
T4 sequence (P40683 whole entry, looked up): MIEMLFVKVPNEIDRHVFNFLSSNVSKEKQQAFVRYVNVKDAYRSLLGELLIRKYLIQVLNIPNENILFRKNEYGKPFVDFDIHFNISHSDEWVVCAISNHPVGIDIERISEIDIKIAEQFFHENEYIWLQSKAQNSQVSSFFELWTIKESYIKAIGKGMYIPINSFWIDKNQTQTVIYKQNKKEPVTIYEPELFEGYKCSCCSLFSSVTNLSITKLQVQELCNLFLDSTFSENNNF
Excerpt: (§1) To examine 4′-phosphopantetheinylation of BlmI in vivo, we chose E. coli OG7001 as the expression host, which is a β-alanine auxotroph derived from E. coli BL21(DE3) by P1 co-transduction of the panD mutation from E. coli SJ16 (Epple et al. (1998) J. Bacteriol. 180: 4950-4954). Upon introduction of pBS2 into E. coli OG7001, blmI was exceptionally well expressed and the overproduced BlmI protein was readily purified. […] To circumvent the poor endogenous PPTase activity, we next co-expressed blmI with the gsp gene, which was isolated from the gramicidin S producer Bacillus brevis, and encoded a PPTase that was known to 4′-phosphopantetheinylate heterologously produced PCPs in E. coli (Lambalot et al. (1996) Chem. Biol. 3: 923-936; Ku et al. (1997) Chem. Biol. 4: 203-207). We co-transformed pDPT-Gsp, in which the expression of the gsp gene was under the control of the T5/Lac promoter (Ku et al. (1997) Chem. Biol. 4: 203-207), and pBS2 into E. coli OG7001. BlmI was again very well expressed and the resulting BlmI protein was similarly purified. […]
(§2) Samples of BlmI (30-70 μg) purified from E. coli OG7001(pBS2) or E. coli OG7001(pBS2/pDPT-Gsp) were analyzed on a Nova-Pak C18 column (5 mm×10, Waters, Milford, Mass.) using a Rainin DMAX HPLC unit. […]

[5] = test system: E. coli endogenous PPTases; assay: In vivo 4′-phosphopantetheinylation of BlmI in E. coli OG7001 without Gsp; type: cell-based; conditions: E. coli OG7001(pBS2), HPLC analysis
Excerpt: as §1, §2

TcmM = target: T5, TcmM (Streptomyces glaucescens, UniProt P12884); assay: In vitro phosphopantetheinylation assay of PptA; type: biochemical, S. glaucescens; conditions: (3H)-(pantetheinyl)-CoASH, autoradiography
T5 construct: His6 (N); His6 (C); made in house; host or cells: E. coli BL21(DE3) (pET28a-TcmM)
T5 sequence (P12884 1-83): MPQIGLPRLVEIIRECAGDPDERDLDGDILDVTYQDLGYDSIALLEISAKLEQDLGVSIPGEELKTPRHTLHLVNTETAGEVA
T5 sequence (Q9F0Q6 1-246 partner): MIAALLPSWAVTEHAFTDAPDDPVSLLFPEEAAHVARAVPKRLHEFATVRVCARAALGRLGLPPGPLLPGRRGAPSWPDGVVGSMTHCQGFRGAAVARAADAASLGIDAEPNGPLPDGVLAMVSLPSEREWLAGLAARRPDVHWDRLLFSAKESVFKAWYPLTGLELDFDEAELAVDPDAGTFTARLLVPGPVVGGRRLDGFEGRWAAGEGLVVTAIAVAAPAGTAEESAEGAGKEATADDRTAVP

BlmVIII = assay: In vitro phosphopantetheinylation assay of PptA; type: biochemical, S. verticillus; conditions: (3H)-(pantetheinyl)-CoASH, autoradiography
MBlmX-2 = assay: In vitro phosphopantetheinylation assay of PptA; conditions: (3H)-(pantetheinyl)-CoASH, autoradiography
BlmI = assay: In vitro phosphopantetheinylation assay of PptA; conditions: (3H)-(pantetheinyl)-CoASH, autoradiography

Chain of MBlmX-2 (as listed by the source, one chain of several): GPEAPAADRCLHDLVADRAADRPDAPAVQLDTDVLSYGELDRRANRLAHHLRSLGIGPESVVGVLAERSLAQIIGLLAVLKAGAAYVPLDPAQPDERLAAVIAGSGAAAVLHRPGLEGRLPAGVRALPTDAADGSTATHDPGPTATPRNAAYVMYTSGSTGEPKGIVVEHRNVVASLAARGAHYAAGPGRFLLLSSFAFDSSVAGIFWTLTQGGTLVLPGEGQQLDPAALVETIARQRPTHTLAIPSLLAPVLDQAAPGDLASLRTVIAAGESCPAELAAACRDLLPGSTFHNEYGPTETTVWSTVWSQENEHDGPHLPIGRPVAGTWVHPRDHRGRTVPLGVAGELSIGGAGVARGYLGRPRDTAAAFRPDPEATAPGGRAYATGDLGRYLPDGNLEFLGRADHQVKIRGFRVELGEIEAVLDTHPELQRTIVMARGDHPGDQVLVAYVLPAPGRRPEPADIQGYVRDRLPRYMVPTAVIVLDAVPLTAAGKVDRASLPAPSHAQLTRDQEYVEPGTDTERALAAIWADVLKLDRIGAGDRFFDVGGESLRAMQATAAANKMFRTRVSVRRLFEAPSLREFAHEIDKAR
Chain of BlmVIII (as listed by the source, one chain of several): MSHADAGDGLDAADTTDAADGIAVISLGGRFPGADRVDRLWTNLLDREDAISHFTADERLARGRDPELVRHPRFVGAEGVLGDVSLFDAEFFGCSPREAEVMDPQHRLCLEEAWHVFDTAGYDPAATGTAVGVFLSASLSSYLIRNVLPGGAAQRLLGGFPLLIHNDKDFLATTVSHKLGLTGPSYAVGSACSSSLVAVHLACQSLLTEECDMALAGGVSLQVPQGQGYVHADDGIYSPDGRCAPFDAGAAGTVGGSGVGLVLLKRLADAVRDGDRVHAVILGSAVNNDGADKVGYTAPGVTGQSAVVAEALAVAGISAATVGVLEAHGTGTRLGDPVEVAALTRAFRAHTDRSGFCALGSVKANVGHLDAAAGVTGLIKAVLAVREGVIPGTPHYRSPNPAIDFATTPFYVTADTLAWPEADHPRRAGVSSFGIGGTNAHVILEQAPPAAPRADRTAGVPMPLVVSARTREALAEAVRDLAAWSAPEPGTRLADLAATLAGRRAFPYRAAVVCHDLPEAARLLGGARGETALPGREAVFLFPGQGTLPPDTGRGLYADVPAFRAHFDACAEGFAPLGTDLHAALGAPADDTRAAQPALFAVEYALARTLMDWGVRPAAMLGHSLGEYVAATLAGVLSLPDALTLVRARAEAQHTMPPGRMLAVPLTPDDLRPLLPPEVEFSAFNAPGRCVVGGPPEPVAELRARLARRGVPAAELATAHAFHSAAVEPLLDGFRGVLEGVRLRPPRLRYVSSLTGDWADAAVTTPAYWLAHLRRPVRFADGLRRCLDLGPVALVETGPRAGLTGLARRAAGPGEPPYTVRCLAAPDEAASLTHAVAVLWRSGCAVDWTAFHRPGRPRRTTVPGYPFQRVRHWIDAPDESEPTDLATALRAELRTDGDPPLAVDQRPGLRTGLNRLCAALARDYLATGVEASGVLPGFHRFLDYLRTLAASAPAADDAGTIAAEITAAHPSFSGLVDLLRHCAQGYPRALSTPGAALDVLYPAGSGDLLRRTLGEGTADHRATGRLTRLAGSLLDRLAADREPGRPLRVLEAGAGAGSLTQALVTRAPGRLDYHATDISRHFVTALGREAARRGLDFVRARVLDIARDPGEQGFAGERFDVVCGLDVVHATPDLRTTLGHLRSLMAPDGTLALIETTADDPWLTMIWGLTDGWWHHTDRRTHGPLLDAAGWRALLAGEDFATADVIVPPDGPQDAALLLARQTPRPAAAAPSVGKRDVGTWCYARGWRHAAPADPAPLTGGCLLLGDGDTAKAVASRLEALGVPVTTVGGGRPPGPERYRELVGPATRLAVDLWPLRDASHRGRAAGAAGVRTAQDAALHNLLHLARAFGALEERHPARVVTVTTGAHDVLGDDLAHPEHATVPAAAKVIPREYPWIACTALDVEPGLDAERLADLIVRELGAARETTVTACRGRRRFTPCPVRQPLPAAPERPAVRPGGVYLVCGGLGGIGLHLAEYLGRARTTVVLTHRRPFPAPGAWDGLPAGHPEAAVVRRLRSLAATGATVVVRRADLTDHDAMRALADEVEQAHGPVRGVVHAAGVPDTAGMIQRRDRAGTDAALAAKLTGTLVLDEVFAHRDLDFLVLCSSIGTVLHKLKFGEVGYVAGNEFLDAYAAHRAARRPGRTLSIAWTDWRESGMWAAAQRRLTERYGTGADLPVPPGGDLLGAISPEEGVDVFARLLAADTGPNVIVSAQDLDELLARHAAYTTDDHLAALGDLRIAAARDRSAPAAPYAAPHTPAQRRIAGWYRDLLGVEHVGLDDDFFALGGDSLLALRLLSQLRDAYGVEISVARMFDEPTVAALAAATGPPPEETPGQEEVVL

## Val-A (adenylation domain of a type I NRPS from a gene cluster of Sv ATCC15003 unrelated to BLM biosynthesis)
[1]
  in vitro aminoacylation in trans with L-[^14C(U)]valine and ATP, SDS-PAGE and autoradiography: the holo-BlmI was specifically labeled by L-[^14C(U)]valine in the presence of Val-A
[2]
  in vitro aminoacylation in trans with L-[^14C(U)]valine and ATP, SDS-PAGE and autoradiography: nor incubation of L-[^14C(U)]valine with the Val-A and apo-BlmI proteins, resulted in the detection of ^14C-labeled BlmI protein

## Gsp PPTase from the gramicidin S producer Bacillus brevis (from UniProt P40683 1-237) (enzyme)
[3]
  in vivo 4′-phosphopantetheinylation on co-expression with gsp, HPLC analysis: > 60%

B1: Sfp PPTase from the surfactin producer Bacillus subtilis (protein)
chain: MKIYGIYMDRPLSQEENERFMSFISPEKREKCRRFYHKEDAHRTLLGDVLVRSVISRQYQLDKSDIRFSTQEYGKPCIPDLPDAHFNISHSGRWVICAFDSQPIGIDIEKTKPISLEIAKRFFSKTEYSDLLAKDKDEQTDYFYHLWSMKESFIKQEGKGLSLPLDSFSVRLHQDGQVSIELPDSHSPCYIKTYEVDPGYKMAVCAAHPDFPEDITMVSYEELL
apo-BlmI
  transfer of 4′-phosphopantetheine group from CoA to apo-BlmI: can recognize apo-BlmI as a substrate
[4]
  in vitro 4′-phosphopantetheinylation with [^3H-pantetheine]-CoA, autoradiography: the apo-BlmI was quantitatively labeled by [^3H-pantetheine]-CoA, and no labeling was observed in the absence of either the apo-BlmI or the Sfp PPTase protein

B2: BlmI: type II peptidyl carrier protein of 90 amino acids encoded by blmI (protein)
chain: MGAPRGERTRRRALERDIAAIWAETLGRDSVGPHEDFAALGGNSIHAIKITNRVEELVDAELSIRVLLETRTVAGMTDHVHATLTGERDRHHHHHH
modifications: left off: small tags and cut ends
notes: type II peptidyl carrier protein of 90 amino acids encoded by blmI
Gsp PPTase
  overproduced BlmI modified into the holo-BlmI protein: at least 60%
[5]
  form of purified BlmI: essentially in the apo-form

B3: PptA: phosphopantetheinyl transferase of 246 amino acids encoded by pptA from S. verticillus ATCC15003 (protein)
chain: MIAALLPSWAVTEHAFTDAPDDPVSLLFPEEAAHVARAVPKRLHEFATVRVCARAALGRLGLPPGPLLPGRRGAPSWPDGVVGSMTHCQGFRGAAVARAADAASLGIDAEPNGPLPDGVLAMVSLPSEREWLAGLAARRPDVHWDRLLFSAKESVFKAWYPLTGLELDFDEAELAVDPDAGTFTARLLVPGPVVGGRRLDGFEGRWAAGEGLVVTAIAVAAPAGTAEESAEGAGKEATADDRTAVPHHHHHH
TcmM
  PPTase activity on type II ACP: able to posttranslationally modified
BlmVIII
  PPTase activity on type I ACP: able to posttranslationally modified
MBlmX-2
  PPTase activity on type I PCP: robust phosphopantetheinylation activity
BlmI
  PPTase activity on type II PCP: robust phosphopantetheinylation activity
